Earlier results on one substance are cited in paper PMC5430790.

In general, Kd refers to a measure of binding affinity in units of concentration.

In one data set the target is TβR-II (Homo sapiens) (UniProt P37173).
The target in the next data set is TβR-I (Homo sapiens) (UniProt P36897).
Sequence of TβR-I (Homo sapiens) (P36897 34-126): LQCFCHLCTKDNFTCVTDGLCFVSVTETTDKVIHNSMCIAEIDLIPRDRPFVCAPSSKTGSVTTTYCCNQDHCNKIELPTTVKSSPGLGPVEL

Sequence of TGF-β1 (P01137 279-390): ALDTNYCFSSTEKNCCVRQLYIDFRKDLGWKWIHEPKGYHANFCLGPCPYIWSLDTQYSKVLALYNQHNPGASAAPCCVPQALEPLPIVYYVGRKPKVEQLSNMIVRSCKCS
Sequence of TβR-II (Homo sapiens) (P37173 23-166): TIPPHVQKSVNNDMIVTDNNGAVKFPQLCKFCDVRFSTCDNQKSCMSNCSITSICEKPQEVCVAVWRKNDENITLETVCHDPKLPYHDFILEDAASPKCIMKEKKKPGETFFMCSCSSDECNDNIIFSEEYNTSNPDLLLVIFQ

Turning to TGF-β1 (from UniProt P01137), the figures for the dissociation constant (Kd) with TβR-II (Homo sapiens) and with TβR-I (Homo sapiens) were 0.19 µM and 70 µM, respectively.
